From US20160296633A1
Values belong to the substance of their own block, whether it stands above or below them.

How the values were obtained:
[1] = target: human trophoblast cell-surface antigen (Trop-2) (human) (UniProt P09758); assay: FACS on PC-3 cells
[2] = target: human trophoblast cell-surface antigen (Trop-2) (human) (UniProt P09758); assay: FACS on BxPC-3 cells
[3] = target: human trophoblast cell-surface antigen (Trop-2) (human) (UniProt P09758); assay: FACS on Calu-3 cells
[4] = target: human trophoblast cell-surface antigen (Trop-2) (human) (UniProt P09758); assay: FACS on Capan-1 cells
[5] = target: human trophoblast cell-surface antigen (Trop-2) (human) (UniProt P09758); assay: FACS on COLO 205 cells
[6] = target: human trophoblast cell-surface antigen (Trop-2) (human) (UniProt P09758); assay: FACS on SK-MES-1 cells
[7] = target: human trophoblast cell-surface antigen (Trop-2) (human) (UniProt P09758); assay: cell-based or functional assay
[8] = target: human trophoblast cell-surface antigen (Trop-2) (human) (UniProt P09758); assay: FACS on PC-3 cells; background 5.5
[9] = target: human trophoblast cell-surface antigen (Trop-2) (human) (UniProt P09758); assay: FACS on BxPC-3 cells; background 3.1
[10] = target: human trophoblast cell-surface antigen (Trop-2) (human) (UniProt P09758); assay: FACS on Calu-3 cells; background 4.7
[11] = target: human trophoblast cell-surface antigen (Trop-2) (human) (UniProt P09758); assay: FACS on Capan-1 cells; background 5.0
[12] = target: human trophoblast cell-surface antigen (Trop-2) (human) (UniProt P09758); assay: FACS on COLO 205 cells; background 4.5
[13] = target: human trophoblast cell-surface antigen (Trop-2) (human) (UniProt P09758); assay: FACS on SK-MES-1 cells; background 3.5
[14] = target: human trophoblast cell-surface antigen (Trop-2) (human) (UniProt P09758); assay: flow cytometry, surface, Capan-1 cells
[15] = target: human trophoblast cell-surface antigen (Trop-2) (human) (UniProt P09758); assay: flow cytometry, surface, NCI-N87 cells
[16] = target: CD74 (invariant chain, Ii) (human) (UniProt P04233); assay: flow cytometry, permeabilized Raji cells
[17] = target: CD74 (invariant chain, Ii) (human) (UniProt P04233); assay: flow cytometry, surface only, Raji cells
[18] = target: CD74 (invariant chain, Ii) (human) (UniProt P04233); assay: flow cytometry, permeabilized A-375 cells
[19] = target: CD74 (invariant chain, Ii) (human) (UniProt P04233); assay: flow cytometry, permeabilized HuH-7 cells
[20] = target: CD74 (invariant chain, Ii) (human) (UniProt P04233); assay: flow cytometry, surface only, A-375 cells
[21] = target: CD74 (invariant chain, Ii) (human) (UniProt P04233); assay: flow cytometry, surface only, HuH-7 cells
[22] = target: CD74 (invariant chain, Ii) (human) (UniProt P04233); assay: flow cytometry, permeabilized Hep-G2 cells
[23] = target: CD74 (invariant chain, Ii) (human) (UniProt P04233); assay: flow cytometry, permeabilized Hs746T cells
[24] = target: CD74 (invariant chain, Ii) (human) (UniProt P04233); assay: flow cytometry, surface only, Hep-G2 cells
[25] = target: CD74 (invariant chain, Ii) (human) (UniProt P04233); assay: flow cytometry, surface only, Hs746T cells
[26] = target: CD74 (invariant chain, Ii) (human) (UniProt P04233); assay: flow cytometry, permeabilized Capan-1 cells
[27] = target: CD74 (invariant chain, Ii) (human) (UniProt P04233); assay: flow cytometry, permeabilized NCI-N87 cells
[28] = target: CD74 (invariant chain, Ii) (human) (UniProt P04233); assay: flow cytometry, surface only, Capan-1 cells
[29] = target: CD74 (invariant chain, Ii) (human) (UniProt P04233); assay: flow cytometry, surface only, NCI-N87 cells

CD74 (invariant chain, Ii) (human), sequence (P04233 whole entry, change not shown): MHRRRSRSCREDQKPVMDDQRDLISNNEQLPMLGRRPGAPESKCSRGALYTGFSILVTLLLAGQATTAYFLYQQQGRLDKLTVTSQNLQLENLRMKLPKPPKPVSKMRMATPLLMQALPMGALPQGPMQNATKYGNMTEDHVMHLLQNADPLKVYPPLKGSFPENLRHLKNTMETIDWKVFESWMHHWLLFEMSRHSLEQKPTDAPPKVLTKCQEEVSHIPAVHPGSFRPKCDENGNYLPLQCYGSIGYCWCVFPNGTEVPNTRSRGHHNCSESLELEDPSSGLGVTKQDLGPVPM
human trophoblast cell-surface antigen (Trop-2) (human), sequence (P09758 27-323): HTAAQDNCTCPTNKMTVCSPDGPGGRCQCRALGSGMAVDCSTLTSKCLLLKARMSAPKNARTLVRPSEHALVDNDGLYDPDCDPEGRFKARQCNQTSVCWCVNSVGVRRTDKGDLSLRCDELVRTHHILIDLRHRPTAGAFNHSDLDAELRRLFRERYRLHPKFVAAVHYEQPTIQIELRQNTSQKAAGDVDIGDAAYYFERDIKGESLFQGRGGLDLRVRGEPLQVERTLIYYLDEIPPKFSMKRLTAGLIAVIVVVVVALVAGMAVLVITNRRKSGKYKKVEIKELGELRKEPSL

percent positive [1]: 73.6%
percent positive [2]: 98.3%
percent positive [3]: 99.6%
percent positive [4]: 94.2%
percent positive [5]: 99.5%
percent positive [6]: 91.2%
ADCC, specific lysis of BxPC-3 target cells by PBMCs (effector to target 100:1), antibody at 33.3 nM [7]: 8.5%
median fluorescence [8]: 46.2
median fluorescence [9]: 26.4
median fluorescence [10]: 282
median fluorescence [11]: 100
median fluorescence [12]: 142
median fluorescence [13]: 44
MFI (surface) [14]: 237
MFI (surface) [15]: 795
Substance: humanized RS7 IgG (hRS7), anti-Trop-2 (antibody)

MFI ratio hLL1:bkgd (surface and cytoplasmic) [16]: 28.6
MFI ratio hLL1:bkgd (surface) [17]: 19.6
MFI ratio hLL1:bkgd (surface and cytoplasmic) [18]: 30.8
MFI ratio hLL1:bkgd (surface and cytoplasmic) [19]: 28.5
MFI ratio hLL1:bkgd (surface) [20]: 5.3
MFI ratio hLL1:bkgd (surface) [21]: 1.6
MFI ratio hLL1:bkgd (surface and cytoplasmic) [22]: 31.2
MFI ratio hLL1:bkgd (surface and cytoplasmic) [23]: 28.8
MFI ratio hLL1:bkgd (surface) [24]: 1.5
MFI ratio hLL1:bkgd (surface) [25]: 2.1
MFI ratio hLL1:bkgd (surface and cytoplasmic) [26]: 49.6
MFI ratio hLL1:bkgd (surface and cytoplasmic) [27]: 36.7
MFI ratio hLL1:bkgd (surface) [28]: 1.8
MFI ratio hLL1:bkgd (surface) [29]: 1.3
Substance: milatuzumab (hLL1), humanized anti-CD74 IgG1 (antibody)
